In doi:10.1101/2024.01.05.574302 (bioRxiv, 2024):
Each block holds one molecule with its values, some of them ahead of it.

B2: ASAP1 SH3 domain (aa. 1083-1147) (domain or fragment, mouse, UniProt Q9QWY8 1083-1147, looked up)
chain: GKNKVRRVKTIYDCQADNDDELTFIEGEVIIVTGEEDQEWWIGHIEGQPERKGVFPVSFVHILSD

Assays:
[1] = molecular target: B2; experiment: ITC
gAnkB aa. 1477-1792 = molecular target: T1, gAnkB aa. 1477-1792 (human, UniProt Q01484 1477-1792); experiment: ITC
T1 sequence (looked up): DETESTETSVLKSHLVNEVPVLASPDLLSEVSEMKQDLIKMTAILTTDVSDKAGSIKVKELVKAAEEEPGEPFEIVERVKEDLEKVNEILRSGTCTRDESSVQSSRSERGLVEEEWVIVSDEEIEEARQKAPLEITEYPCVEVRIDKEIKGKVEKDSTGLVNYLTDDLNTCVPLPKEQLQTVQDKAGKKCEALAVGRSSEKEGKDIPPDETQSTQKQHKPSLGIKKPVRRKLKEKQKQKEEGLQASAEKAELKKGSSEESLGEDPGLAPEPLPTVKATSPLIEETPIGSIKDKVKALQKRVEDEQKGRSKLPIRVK

fold weakening of binding against the wild-type gAnkB peptide [1]: ~125 fold
Molecule: GIKKPVERKLKE (peptide, UniProt Q01484 1699-1710, looked up) [gAnkB peptide R1705E]

fold weakening of binding against the wild-type gAnkB peptide [1]: ~120 fold
Molecule: GIKEPVRRKLKE (peptide, UniProt Q01484 1699-1710, looked up) [gAnkB peptide K1702E]

fold decrease of affinity against the wild-type gAnkB peptide [1]: ~3 fold
Molecule: GIKKGVRRKLKE (peptide, UniProt Q01484 1699-1710, looked up) [gAnkB peptide P1703G]

Second part, the molecule before the results:

Molecule: Clasp1 (from UniProt Q7Z460 1-1538) (natural protein)
Kd [1]: 8.9 µM

Molecule: GIKKPVRRKLKE (peptide, UniProt Q01484 1699-1710, looked up) [gAnkB peptide (aa. 1699-1710)]
Kd [1]: ~0.14 µM

B1: mouse ASAP2-SH3 (aa. 896-958) recombinant protein (domain or fragment, UniProt Q7SIG6 896-958, looked up)
chain: SKPKRVKALYNCVADNPDELTFSEGDVIIVDGEEDQEWWIGHIDGEPSRKGAFPVSFVHFIAD
Kd (gAnkB aa. 1477-1792): ~68 nM

Molecule: B2
Kd (gAnkB aa. 1477-1792): ~140 nM
